Literature values in publication PMC10522771.

Experiments:
CBP TAZ1 (Homo sapiens) = CBP TAZ1 (Homo sapiens) (UniProt Q92793)
CBP TAZ2 (Homo sapiens) = CBP TAZ2 (Homo sapiens) (UniProt Q92793)
CBP TAZ2 (Homo sapiens), sequence (Q92793 1764-1855): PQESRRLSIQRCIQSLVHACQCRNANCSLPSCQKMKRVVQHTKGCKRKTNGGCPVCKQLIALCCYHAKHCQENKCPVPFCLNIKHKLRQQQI

MITF N-terminal TAD, sequence (O75030 224-295): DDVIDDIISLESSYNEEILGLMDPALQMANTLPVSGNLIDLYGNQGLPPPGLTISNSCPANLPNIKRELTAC
CBP TAZ1 (Homo sapiens), sequence (Q92793 340-439): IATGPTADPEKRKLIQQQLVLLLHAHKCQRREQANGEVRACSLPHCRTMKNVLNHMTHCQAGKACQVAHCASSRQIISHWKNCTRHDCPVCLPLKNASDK

Substance: MITF N-terminal TAD (from UniProt O75030)
- Kd (CBP TAZ1 (Homo sapiens)): 6.7 µM
- Kd (CBP TAZ2 (Homo sapiens)): 1.2 µM
